For experiment [1], the target named is T1, Recombinant Human TNFα/TNFSF1A (human, UniProt P01375 77-233).
T1 construct: also called huTNFα
Briefly: SPR (BIACORE). The method, then: The BIACORE assay (Biacore, Inc, Piscataway, N.J.) determines the affinity of antibodies or DVD-Ig with kinetic measurements of on-rate and off-rate constants. Binding of antibodies or DVD-Ig to a target antigen (for example, a purified recombinant target antigen) was determined by surface plasmon resonance-based measurements with a Biacore® 1000 or 3000 instrument (Biacore® AB, Uppsala, Sweden) using running HBS-EP (10 mM HEPES [pH 7.4], 150 mM NaCl, 3 mM EDTA, and 0.005% surfactant P20) at 25° C. All chemicals were obtained from Biacore® AB (Uppsala, Sweden) or otherwise from a different source as described in the text. For example, approximately 5000 RU of goat anti-mouse IgG, (Fcγ), fragment specific polyclonal antibody (Pierce Biotechnology Inc, Rockford, Ill.) diluted in 10 mM sodium acetate (pH 4.5) is directly immobilized across a CM5 research grade biosensor chip using a standard amine coupling kit according to manufacturer's instructions and procedures at 25 μg/ml. Unreacted moieties on the biosensor surface are blocked with ethanolamine. Modified carboxymethyl dextran surface in flowcell 2 and 4 is used as a reaction surface. Unmodified carboxymethyl dextran without goat anti-mouse IgG in flow cell 1 and 3 is used as the reference surface. For kinetic analysis, rate equations derived from the 1:1 Langmuir binding model are fitted simultaneously to association and dissociation phases of all eight injections (using global fit analysis) with the use of Biaevaluation 4.0.1 software. Purified antibodies or DVD-Ig are diluted in HEPES-buffered saline for capture across goat anti-mouse IgG specific reaction surfaces. Antibodies or DVD-Ig to be captured as a ligand (25 μg/ml) are injected over reaction matrices at a flow rate of 5 μl/min. The association and dissociation rate constants, kₒₙ (M⁻¹ s⁻¹) and koff (s⁻¹) are determined under a continuous flow rate of 25 μl/min. Rate constants are derived by making kinetic binding measurements at different antigen concentrations ranging from 10-200 nM. The equilibrium dissociation constant (M) of the reaction between antibodies or DVD-Igs and the target antigen is then calculated from the kinetic rate constants by the following formula: KD=koff/kₒₙ. Binding is recorded as a function of time and kinetic rate constants are calculated.

In experiment [2] the target is T1, Recombinant Human TNFα/TNFSF1A. Briefly: cell-based or functional assay.

T1 sequence (P01375 77-233 limits assumed): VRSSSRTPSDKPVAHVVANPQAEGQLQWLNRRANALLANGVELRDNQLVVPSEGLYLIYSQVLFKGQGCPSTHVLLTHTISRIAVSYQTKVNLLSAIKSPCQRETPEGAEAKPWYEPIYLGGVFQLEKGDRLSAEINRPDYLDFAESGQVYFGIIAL

B1: AB284 (antibody, human IgG1, kappa, V domains shown)
VH: EVQLVQSGTEVKKPGESLKISCKASGFTFDDYAMHWVRQMPGKGLEWVSAITWNSGHIDYADSVEGQFTISRDNSFNTLFLQWSSLKASDTAMYYCAKVSYLSTASSLDYWGQGTMVTVSS
VL: EIVMTQSPATLSVSPGERATLSCRASQGIRNYLAWYQQKPGQAPRLLIYAASTLQSDVPARFSGSGSGTEFTLTISSLQSEDFAVYYCQRYNRAPYTFGQGTRLEIKR
notes: CDR-grafted parent antibody; also called TNF (AB058)
Consider B1, for which, in experiment [1], the Kd turned out to be 0.13 nM, the off-rate (koff) was 0.00015 s⁻¹ and the kon is 1.2e+06 M⁻¹ s⁻¹. The “TNFα Neutralization Assay EC50 nM (L929 cells)” value in experiment [2] was found to be 0.228 nM.

B2: DVD1727 (bispecific antibody, human IgG1, kappa)
heavy: not shown
light: DVQMTQSPSSLSASVGDRVTITCTSSQNIVHSNGNTYLEWYQQKPGKSPKLLIYKVSNRFSGVPSRFSGSGSGTDFTLTISSLQPEDVATYYCFQVSHVPYTFGQGTKVEIKRTVAAPDIRMTQSPASLSASLGETVNIECRASQGIRNYLAWYQQKPGKAPQLLIYAASTLQSGVPSRFSGSGSGTQFSLKINSLQSEDVATYYCQRYNRAPYTFGGGTKLELKRTVAAPSVFIFPPSDEQLKSGTASVVCLLNNFYPREAKVQWKVDNALQSGNSQESVTEQDSKDSTYSLSSTLTLSKADYEKHKVYACEVTHQGLSSPVTKSFNRGEC
notes: DVD-Ig; also called PGE2 (AB017) / TNF (AB023) DVD-Ig
On to B2, for which, in experiment [1], the Kd was 5.4 nM, the off-rate (koff) was found to be 0.00012 s⁻¹ and the on-rate (kon) is 22000 M⁻¹ s⁻¹. For the same molecule, the “C-terminal VD TNFα Neutralization Assay EC50 nM (L929 cells)” value in experiment [2] stood at 1.17 nM.

B3: AB314 (antibody, human IgG1, kappa, V domains shown)
VH: EVQLVESGGGLVQPANSLKLSCAASGFTFDDYAMHWVRQSPKKGLEWVSAITWNSGHIDYADSVEGRFTISRDNAKNTLYLQMDSLRSEDTATYYCAKVSYLSTASSLDYWGQGVLVTVSS
VL: DIRMTQSPASLSASLGETVNIECRASQGIRNYLAWYQQKPGKAPQLLIYAASTLQSGVPSRFSGSGSGTQFSLKINSLQSEDVATYYCQRYNRAPYTFGGGTKLELKR
notes: CDR-grafted parent antibody; also called TNF (AB023)
Take B3: in experiment [1], the Kd is 0.064 nM, the koff is 7.9e-05 s⁻¹ and the on-rate (kon) worked out at 1.2e+06 M⁻¹ s⁻¹. Further, the “TNFα Neutralization Assay EC50 nM (L929 cells)” value in experiment [2] was determined as 0.053 nM.

B4: DVD1720 (bispecific antibody)
heavy: not shown
light: EIVMTQSPGTLSLSPGERATLSCRASQGIRNYLAWYQQKPGQAPRLLIYAASTLQSGVPDRFSGSGSGTDFTLTISRLEPEDFAVFYCQRYNRAPYTFGQGTKVEIKRTVAAPDVQMTQSPSSLSASVGDRVTITCTSSQNIVHSNGNTYLEWYQQKPGKSPKLLIYKVSNRFSGVPSRFSGSGSGTDFTLTISSLQPEDVATYYCFQVSHVPYTFGQGTKVEIKRTVAAPSVFIFPPSDEQLKSGTASVVCLLNNFYPREAKVQWKVDNALQSGNSQESVTEQDSKDSTYSLSSTLTLSKADYEKHKVYACEVTHQGLSSPVTKSFNRGEC
In the case of B4, the “N-terminal VD TNFα Neutralization Assay EC50 nM (L929 cells)” value in experiment [2] was found to be 0.026 nM.

B5: AB281 (antibody, human IgG1, kappa, V domains shown)
VH: EVTLRESGPALVKPTQTLTLTCTASGFTFDDYAMHWVRQPPGKGLEWVSAITWNSGHIDYADSVEGRFTISRDNSKNQLVLTMTNMDPVDTATYYCAKVSYLSTASSLDYWGQGTTVTVSS
VL: DIVMTQSPDSLAVSLGERATINCRASQGIRNYLAWYQQKPGQAPKLLIYAASTLQSGVPDRFSGSGSGTDFTLTISSLQAEDVAVYYCQRYNRAPYTFGGGTKVEIKR
notes: CDR-grafted parent antibody; also called TNF (AB057)
As to B5, in experiment [1], the dissociation constant (Kd) came to 0.088 nM, the dissociation rate constant (koff) is 0.0001 s⁻¹ and the kon was found to be 1.2e+06 M⁻¹ s⁻¹. Moreover, the “TNFα Neutralization Assay EC50 nM (L929 cells)” value in experiment [2] came to 0.104 nM.

The values above are taken from patent publication US20120258108A1 (AbbVie / Abbott, published 2012).
